{"source": "the nanobody polyreactivity screen of Harvey et al. (2022)", "data": [{"test": "yeast display, Sf9 membrane polyspecificity reagent, FACS + sequencing; frameworks hold sequencing errors", "method_in_brief": "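A synthetic nanobody library was expressed on Saccharomyces cerevisiae BJ5465 by galactose induction for 36–48 hours. The library was stained for 1 hour at 4 °C with 10% biotinylated, detergent-solubilized Sf9 membrane reagent and enriched with streptavidin microbeads before FACS. Low and high (top ~1%) gates were set on anti-HA fluorescence for expression and streptavidin fluorescence for reagent binding, and each polyreactivity label reflects the gate of origin.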", "values": [{"sequence": "QVHLQESGGGLVQAGGSLRLSCAASGTIFRFRYMGWHRQAPGKERELVAGINGGTTTYYADSVIGRFTISRDNAKNTVYLQMNSLKPDDTAVYNCAAGASRLTYYDFWGQGTQVTVSS", "polyreactivity (PSR sort gate)": "low polyreactivity"}, {"sequence": "QVHLQESGGGLVQAGGSLRMSCAASGTIFTEANMGWYRQAPGKERELVATIGLGSTTNYADSVKGRFTISRDNAKNTVYLQMNSLKPEETAVYYCAVVTVDPVGFVYWGQGSQVTVSS", "polyreactivity (PSR sort gate)": "low polyreactivity"}, {"sequence": "QVHLVDSGGGLVQAGCSLPLSCAASGRTFLAYAMGWYRQEPGKERQLVAAISGSGGRSYYADSVKGRFTISRDNAMNTVYLQMNSLKPEDTAVYYCAANVVRWWGDGDYWGQGTQVTVSS", "polyreactivity (PSR sort gate)": "high polyreactivity"}, {"sequence": "QVHLVDSGGGLVQAGGSLRLSCAASGYIFPYNAMGWYRQEPGKERELVATITGTGGSTYYADSVKGRFTISRDNAKITVYLQMNSLKPEDTAVFYCAADLSIRYDHEYGYWGQGTQLTVSS", "polyreactivity (PSR sort gate)": "low polyreactivity"}, {"sequence": "QVHLVESAGGLLQAAASLRLSGDASGSIISSYAMGWYRQAPGKERQLVAAITRSGGSTYYADSVKGRFTISRDYAKKTVYLQMNSLNPEDTAVYYCAARSYVHVFVRMYYWGQGTQVTVSS", "polyreactivity (PSR sort gate)": "high polyreactivity"}, {"sequence": "QVHLVESAGGLVQAGGSLRLSCAASGLIFGTYAMGWYRPAPGKERELVATINSSGGSTYYADSVKGRFTISRDNAKNTVYLQINSLKPEDTAVYYCAADNWVNDGDYWGQGTQVTVLS", "polyreactivity (PSR sort gate)": "low polyreactivity"}, {"sequence": "QVHLVESAGGLVQAGGSLRLSCAPSGSTFPLYVMGWYRQAPGKERELVAAIDWSGGSTYYADSVKGRFTISRDNAKNTVYLQMNRLKPEDSAVYYCNARYLRRGDYWGQGTQVTVSS", "polyreactivity (PSR sort gate)": "low polyreactivity"}, {"sequence": "QVHLVESGAGLVHAGGRLRLSCAASGRIFFGYAMGWYRQAPGKERELVAGITSSTGRTYYADSVKGRFTISRDNAKNTVYLQMNSVKPEDTAVYYCAADTWYRYDYWGQGTQVTESS", "polyreactivity (PSR sort gate)": "low polyreactivity"}, {"sequence": "QVHLVESGGAIVQAGGSLRLSCAASGYIFDRNAMAWYRQAPGKERELVAAITKRGGITYYADSVKGRFTISRDNAKNTVYLQMNSLKAEDTAVYYCNALARSSRYDYWGKGTQVTVSS", "polyreactivity (PSR sort gate)": "low polyreactivity"}, {"sequence": "QVHLVESGGALVQAGGSLRLSCAASGFTFHTYASRLYRQAPGKEREFVAAISYSGGNTYYADSVKGHFTISRDNAKKTVYLHMNSLKPEDTAVYYCAAQYYYRYYWGPGTQVTVSS", "polyreactivity (PSR sort gate)": "high polyreactivity"}, {"sequence": "QVHLVESGGCLVQAGGSLRLSCAASGFIFPTYAMGWYRQAPGKERELVATITTNAGGTHYADSVKGRFTISRDNAKNTVYLQMNCLKQEDTAVYYCAAKQYRPKQRKYWTRIYDYWGQGTQVTVSS", "polyreactivity (PSR sort gate)": "low polyreactivity"}, {"sequence": "QVHLVESGGCLVQAGGSLRLSCAASGSTFPSYAMGWYRQAPGKERELVAAINSGGGTNYADSVKGRFTITRDNAKNTVYLQLNILKPEDSAVYYGAADVWKLYDYWGQGTQVTVSS", "polyreactivity (PSR sort gate)": "low polyreactivity"}, {"sequence": "QVHLVESGGGFVQAGGSLRLSCAASGSIFWLYAMGWYRHAPGKERELVAAISWSTGGTYYADSVKGRFTISRDNAKNTVYLQMNSLKPEDTAVYYCNADTYDQYNYWGQGTQVTVSS", "polyreactivity (PSR sort gate)": "low polyreactivity"}, {"sequence": "QVHLVESGGGIVQAGGSLPLTCAAYGSIFNRYAMGWYRPAPGKERQLVAAISLTSGSTYYADYVKGRFTISRDNEKITVYLQMNSLKPEDTAVYYCATRRKVGPTQVGFYYRGGVDYWGQGTQVTVSS", "polyreactivity (PSR sort gate)": "high polyreactivity"}, {"sequence": "QVHLVESGGGIVQAGLSLRLSCAASGRTFVVNAMGWYRQAPGKERELVAAISYSGGRTYYADSVKGRFTISRDIAKNTVYLKMNSLKPEDTAVYYCAAQSRYGGKFYYWGQGTQVTVSS", "polyreactivity (PSR sort gate)": "high polyreactivity"}, {"sequence": "QVHLVESGGGLDQAGGSLRLICPASGLIFYRYAMGWYRQAPGKERELVAAITTNGARTYYADSVKGRFTISRDNAKNTVYLQMNSLIPEDTAVYYCAGYGAGKFWAEHNYWGQGTQVTVSS", "polyreactivity (PSR sort gate)": "high polyreactivity"}, {"sequence": "QVHLVESGGGLDQAGGSLRLSCAASGRTFKRYAMGWYRQAPGKETELVAAISWSGTSTYYADSVKGRFTISRDNAKNTVYLQMNSLKPEDTALYFCNTPHRSSSVRSYGYWGQGTQVTVSS", "polyreactivity (PSR sort gate)": "high polyreactivity"}, {"sequence": "QVHLVESGGGLFQAGGSLRISCAASGRIFIGNAMGWYRPAPGKERELVAAISKRGGSTYYADSVKGRFTISRDYAKNTVYLQMNSLKPEDTAVYYCNKESLYREFDYWGQGTQVTVSS", "polyreactivity (PSR sort gate)": "low polyreactivity"}, {"sequence": "QVHLVESGGGLGKAGGSLRLSSAASGRTFQYYTMGWYRQAPGKARELVAAIRRGGSTYYADSVKGRFTISRDNAKNTVYLQMYSLKPEDTAVYYCAALYAYSLTARGMEYWGQGTQVTVSS", "polyreactivity (PSR sort gate)": "high polyreactivity"}, {"sequence": "QVHLVESGGGLGQAGGSLRLSGAASGFIFGDYAMGWYRQAPGKERELVADINWTGGSTYYADSVKGRFTISRDNANNTVYLQMKSLKPEDTEVYYCDKDDYAFLITWVDYWGQGTQVTVSS", "polyreactivity (PSR sort gate)": "low polyreactivity"}, {"sequence": "QVHLVESGGGLVEAGGSLRLSCAASGRIFQGYAMGWYRQAPGKERELVAAITRSGGSTYYADSVKGRFTISRDNAKNTVYLQMNSLKPEDTAVYYCAASHYGLLEYWGQGTQVTVSS", "polyreactivity (PSR sort gate)": "low polyreactivity"}, {"sequence": "QVHLVESGGGLVHAGGSLRLSCAASGRSFTFYDMGWYRQAPGKERELVAAITQDSGSSTYYADSVKGRFTISRDNAKNTVYLQMNSLKPEDTAVYYCNADYPGFSSQNDYWGQGTHVTVSS", "polyreactivity (PSR sort gate)": "low polyreactivity"}, {"sequence": "QVHLVESGGGLVKAGGSLGLSCSPSGSTLSFNAMGWYRQAPGKERELVAGITYSGGSTYYADSVKGRFTISRDNAKNTFYLLMNSLKPEDTAVYYCNKASGVYYGHLDYWGQGTQVTVSS", "polyreactivity (PSR sort gate)": "low polyreactivity"}, {"sequence": "QVHLVESGGGLVKAGGSLRLSCAASGISFGSNVMGLYRQAPGKERELVAAINYGGGSTYYADSVKGRFTISRDNAKNTVYLQMNSLKPEDTAVYYCAARGSRVYRYDYWGQGTQVTVSS", "polyreactivity (PSR sort gate)": "low polyreactivity"}, {"sequence": "QVHLVESGGGLVKAGGSLRLSCAASGRTFYKYAKGWYRQAPGKEREFVADISSRGGSTYYEDSVKGRFTISRDNAKNTLYLQMNSLKPEDTAVYYCNSRRNSVRYNYWGQGTQVTVSS", "polyreactivity (PSR sort gate)": "high polyreactivity"}, {"sequence": "QVHLVESGGGLVKAGGSLRLSCGASGSTFERYAMGWYRQAPGKERELVAAINWSGGGTYYADSVKGRFTSSRDNAKNTVYLQMNSLNPEDTAVYYCAGDSGTVVFSLWWYEYYYWGQATQVTVSS", "polyreactivity (PSR sort gate)": "low polyreactivity"}, {"sequence": "QVHLVESGGGLVKAGGSLRLSCPASGFIFTLYAMGWYRQPPGKERELVASIRGSGGNTYYADSVKGRFTISRDNAKNTVYLQMNSLKPEDTAVYYCAAGYPYYYWTPYYYWGQGTQVTVSS", "polyreactivity (PSR sort gate)": "high polyreactivity"}, {"sequence": "QVHLVESGGGLVLAGGSLRLSFAASGSTFDSYAMRCYRQQPGKQREFVAVINSGGSTNYADSVNGRFTISRDYSKNTVYLQMNSLKPEDTAVYYCAAEERYRWHYGGWGYWYDYWGQGTQVTVSS", "polyreactivity (PSR sort gate)": "low polyreactivity"}, {"sequence": "QVHLVESGGGLVMAVGSLRLSCAASGFTFVGYAMGWYRQAPGKERELVATITRVGSTNYADSVKGRFTISRDNAKNTVYLQMNSLKPEDTAVYYCNTRRVYGHGKSPYDSWGQGTQVTVSS", "polyreactivity (PSR sort gate)": "low polyreactivity"}, {"sequence": "QVHLVESGGGLVQAGGILRLSCAASGFTFIHYGMGWYRQAPGKERELVAAISSRGGRTYYADSVKGRFTISRDNAKNTVYLQMNSLKPEDTAVYYCNRDYAVISYGEYDSWGQGTEVTVSS", "polyreactivity (PSR sort gate)": "high polyreactivity"}, {"sequence": "QVHLVESGGGLVQAGGILRLSCAASGRTFRYYAMGWYRQAPGKERELVAAISSGGSTNYADSVKGRFTISRDNAKNTVYLQMNSLKPEDSAVYYCADLWSGNKFNYWGQGTQVTVSS", "polyreactivity (PSR sort gate)": "low polyreactivity"}, {"sequence": "QVHLVESGGGLVQAGGILRLSCAASGSTFGYYAMGWYRQAPGKERELVAAITWSGDSTYADSVKGRFTISRDNAKNTVYLQMNSLKPEDTAVYYCARRGFLGHWPRPSYDYWGQGTQVTVSS", "polyreactivity (PSR sort gate)": "low polyreactivity"}, {"sequence": "QVHLVESGGGLVQAGGRLRLSCAASALTYAYYAMGRYREAPRKERELVAAITTGGTTNYADSVKGRFTISRDNAKNTVYLQMNSLKTEDTAVYYCARLYRSGYEYWGQGTQVTVSS", "polyreactivity (PSR sort gate)": "low polyreactivity"}, {"sequence": "QVHLVESGGGLVQAGGRLRLSCAASGFIFWSNAMRWYRQAPGKERELVAAITWNGGDTYYADSVKGRFTISRDNAKNTVYLQMNSLKPEDTAVFYCAAVPSRRARYDYWGQGTQVTVSS", "polyreactivity (PSR sort gate)": "low polyreactivity"}, {"sequence": "QVHLVESGGGLVQAGGRLRLSCAASGGTFYYIAMGWYRQAPGKERELVAAISWSGVSTSYADTVKGRFTISRDNEKNTVYLQMNSLKPEDTAVYYCAAGPFYYTGFEGDYWGQGTQVTVSS", "polyreactivity (PSR sort gate)": "high polyreactivity"}, {"sequence": "QVHLVESGGGLVQAGGRLRLSCAASGSIFDDYAMGWYRQAPGKERELVAAITSGGSTYYADSVKGRFTISRDNAKNNVYLEMNSLKPEDTAVYYRATRYHWSSSFAPVGAYGYWGQGSQVTVSS", "polyreactivity (PSR sort gate)": "low polyreactivity"}, {"sequence": "QVHLVESGGGLVQAGGSHRLSCAASGFIFKVNAMGWYRQAPGKERELVAAITGSGGSTYYADSVKGRFTISRDNAKNTVFLQMISLKPEDTAVYYCISLYDGYSTRLGFWGHGTQVTVSS", "polyreactivity (PSR sort gate)": "high polyreactivity"}, {"sequence": "QVHLVESGGGLVQAGGSHRLSCAAYGRIFRANAKGWYRQAPGKERELVASITYSGGSTYYADSVKGRFTISRDNAKNTVYLQMNSLKPEDTAVYYCARAGISSGGYYYWGQGTQVTVSS", "polyreactivity (PSR sort gate)": "low polyreactivity"}, {"sequence": "QVHLVESGGGLVQAGGSIRLSCAASGLIFYPYAMGWYRKAHGKEREFVAAITWSGGSTRYADSVKGRFTISLDNAKNTVYLQMNSLKPEDTAVYYCAARYIWWYDYTYTGLDYWGQGTQVSVSS", "polyreactivity (PSR sort gate)": "high polyreactivity"}, {"sequence": "QVHLVESGGGLVQAGGSLLISCSASGSTFGTNAMGWYRQAPGKERDLVASITWSGGNTNYADSVKGRFTISRDNAKNTVYLQKKSMKPADTAVYYCAAEVFISYGVGGYYSDMDYWGQVTQVTVSS", "polyreactivity (PSR sort gate)": "low polyreactivity"}, {"sequence": "QVHLVESGGGLVQAGGSLLLSCAASGSIFYFYAMGWYRQAPGKERELVAGITWRGGRTYYADSVKGRFTISRDNAKNTVDLQMIILKPEDTAVYYCAARFWSTYGYDSWGQGTQVTVSS", "polyreactivity (PSR sort gate)": "high polyreactivity"}, {"sequence": "QVHLVESGGGLVQAGGSLLLSCDASGSIIKQYAMGWYRQAPGKERELVASIRWRDGSTYYADSVKGRFTISRDNAMNTVYLQMNSLKPEDTAVYYCAAYYCVWRYKYYYWGQGTQVTVSS", "polyreactivity (PSR sort gate)": "high polyreactivity"}, {"sequence": "QVHLVESGGGLVQAGGSLLLSCSASGSIFTFNAMGWYRQAPGKERELVAAISSGGNTYYADSEKGRFTISRDNAKNSVYLQMNSLKPEDTAVYYCAAVRRTDGDGKYYYWGQGTEVTVSS", "polyreactivity (PSR sort gate)": "high polyreactivity"}]}]}
